By stoichiometry N is commonly meant the number of molecules, sites or subunits per partner or assembly.

This series concerns the molecule itself. The experiment in a line: crystal structure.

B1: Rv0812 (Mycobacterium tuberculosis bifunctional aminodeoxychorismate lyase / D-amino acid transaminase) (enzyme)
chain: MVVTLDGEILQPGMPLLHADDLAAVRGDGVFETLLVRDGRACLVEAHLQRLTQSARLMDLPEPDLPRWRRAVEVATQRWVASTADEGALRLIYSRGREGGSAPTAYVMVSPVPARVIGARRDGVSAITLDRGLPADGGDAMPWLIASAKTLSYAVNMAVLRHAARQGAGDVIFVSTDGYVLEGPRSTVVIATDGDQGGGNPCLLTPPPWYPILRGTTQQALFEVARAKGYDCDYRALRVADLFDSQGIWLVSSMTLAARVHTLDGRRLPRTPIAEVFAELVDAAIVSDR
notes: also called Mtb Rv0812; WT-Rv0812
On to B1, for which the “stoichiometry N” value worked out at 2.
